# Reference: IntAct's records for PubMed 11056176
# B1: snRNA-activating protein complex subunit 4 (Homo sapiens), Q5SXM2 (parent)
# chain: MDVDAEREKITQEIKELERILDPGSSGSHVEISESSLESDSEADSLPSEDLDPADPPISEEERWGEASNDEDDPKDKTLPEDPETCLQLNMVYQEVIQEKLAEANLLLAQNREQQEELMRDLAGSKGTKVKDGKSLPPSTYMGHFMKPYFKDKVTGVGPPANEDTREKAAQGIKAFEELLVTKWKNWEKALLRKSVVSDRLQRLLQPKLLKLEYLHQKQSKVSSELERQALEKQGREAEKEIQDINQLPEEALLGNRLDSHDWEKISNINFEGSRSAEEIRKFWQNSEHPSINKQEWSREEEERLQAIAAAHGHLEWQKIAEELGTSRSAFQCLQKFQQHNKALKRKEWTEEEDRMLTQLVQEMRVGSHIPYRRIVYYMEGRDSMQLIYRWTKSLDPGLKKGYWAPEEDAKLLQAVAKYGEQDWFKIREEVPGRSDAQCRDRYLRRLHFSLKKGRWNLKEEEQLIELIEKYGVGHWAKIASELPHRSGSQCLSKWKIMMGKKQGLRRRRRRARHSVRWSSTSSSGSSSGSSGGSSSSSSSSSEEDEPEQAQAGEGDRALLSPQYMVPDMDLWVPARQSTSQPWRGGAGAWLGGPAASLSPPKGSSASQGGSKEASTTAAAPGEETSPVQVPARAHGPVPRSAQASHSADTRPAGAEKQALEGGRRLLTVPVETVLRVLRANTAARSCTQKEQLRQPPLPTSSPGVSSGDSVARSHVQWLRHRATQSGQRRWRHALHRRLLNRRLLLAVTPWVGDVVVPCTQASQRPAVVQTQADGLREQLQQARLASTPVFTLFTQLFHIDTAGCLEVVRERKALPPRLPQAGARDPPVHLLQASSSAQSTPGHLFPNVPAQEASKSASHKGSRRLASSRVERTLPQASLLASTGPRPKPKTVSELLQEKRLQEARAREATRGPVVLPSQLLVSSSVILQPPLPHTPHGRPAPGPTVLNVPLSGPGAPAAAKPGTSGSWQEAGTSAKDKRLSTMQALPLAPVFSEAEGTAPAASQAPALGPGQISVSCPESGLGQSQAPAASRKQGLPEAPPFLPAAPSPTPLPVQPLSLTHIGGPHVATSVPLPVTWVLTAQGLLPVPVPAVVSLPRPAGTPGPAGLLATLLPPLTETRAAQGPRAPALSSSWQPPANMNREPEPSCRTDTPAPPTHALSQSPAEADGSVAFVPGEAQVAREIPEPRTSSHADPPEAEPPWSGRLPAFGGVIPATEPRGTPGSPSGTQEPRGPLGLEKLPLRQPGPEKGALDLEKPPLPQPGPEKGALDLGLLSQEGEAATQQWLGGQRGVRVPLLGSRLPYQPPALCSLRALSGLLLHKKALEHKATSLVVGGEAERPAGALQASLGLVRGQLQDNPAYLLLRARFLAAFTLPALLATLAPQGVRTTLSVPSRVGSESEDEDLLSELELADRDGQPGCTTATCPIQGAPDSGKCSASSCLDTSNDPDDLDVLRTRHARHTRKRRRLV
# partner: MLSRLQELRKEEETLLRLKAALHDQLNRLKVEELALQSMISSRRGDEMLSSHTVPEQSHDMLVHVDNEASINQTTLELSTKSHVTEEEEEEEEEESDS
# B2: snRNA-activating protein complex subunit 5 (Homo sapiens), O75971 (parent)
# chain: B1 partner
# partner: B1 chain
# B3: snRNA-activating protein complex subunit 4 (Homo sapiens), Q5SXM2 (parent)
# chain: B1 chain
# partner: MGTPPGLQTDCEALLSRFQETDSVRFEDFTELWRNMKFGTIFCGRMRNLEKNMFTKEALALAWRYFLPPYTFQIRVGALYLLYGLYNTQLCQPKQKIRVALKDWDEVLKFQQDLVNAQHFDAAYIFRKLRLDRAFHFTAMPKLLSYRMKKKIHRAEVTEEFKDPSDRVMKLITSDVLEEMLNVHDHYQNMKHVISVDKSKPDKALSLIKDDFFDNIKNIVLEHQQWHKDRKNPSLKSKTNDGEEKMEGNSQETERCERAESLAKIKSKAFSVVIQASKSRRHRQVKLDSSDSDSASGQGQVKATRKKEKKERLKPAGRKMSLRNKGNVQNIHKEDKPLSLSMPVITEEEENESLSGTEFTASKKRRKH
# Variants of: B1
# Settings: with snpc5_human SNAPC5, O75971
row,effect of a mutation on the interaction,Variant
1,disrupting interaction strength,Q94A
2,disrupting interaction strength,Q94L
3,disrupting interaction strength,Q115A;L122A

# The next lines start with the variant.
row,Variant,effect of a mutation on the interaction
1,Q115L,disrupting interaction strength
2,L89A;V96A,decreasing interaction strength
3,L87A;Q94A,disrupting interaction strength
4,L101A;L108A,disrupting interaction strength

# Variants of: B2
# Settings: with snpc4_human SNAPC4, Q5SXM2
row,effect of a mutation on the interaction,Variant
1,decreasing interaction strength,L8A
2,disrupting interaction strength,L29A;L36A

# The next lines start with the variant.
row,Variant,effect of a mutation on the interaction
1,L18A,decreasing interaction strength
2,L15A;L22A,disrupting interaction strength

# Variants of: B3
# Settings: with snpc1_human SNAPC1, Q16533
row,effect of a mutation on the interaction,Variant
1,decreasing interaction strength,L1369A
2,disrupting interaction strength,L1364A
3,disrupting interaction strength,L1355A;L1362A

# Further lines, the variant ahead of its results:
row,Variant,effect of a mutation on the interaction
1,L1297A;Q1304A,with no effect
2,L1314A,disrupting interaction strength
3,L1311A,decreasing interaction strength
4,L1301A;L1308A,decreasing interaction strength
